The text below walks through data of patent US20260242419A1, “A CYCLIC PEPTIDE FOR TRAPPING INTERLEUKIN-1 BETA” (Merck Sharp & Dohme LLC, priority 2023, published 2026).

Starred links: 1 amine or outer side, 2 acyl side, 3 side chain; linkers in the order of their positions; H or OH if unused. Non-standard residues stand in square brackets, D forms with d. TyrEtNAc = (2S)-3-[4-(2-acetamidoethoxy)phenyl]-2-amino-propanoic acid, CC(=O)NCCOc1ccc(C[C@H](N[*:1])C(=O)[*:2])cc1; dPro(4R-(4-pyridylmethyl)) = O=C(O)[C@H]1C[C@@H](Cc2ccncc2)CN1; Trp(βS-Me,4-F) = C[C@@H](c1c[nH]c2cccc(F)c12)[C@H](N)C(=O)O; Bip(4'-CONH2) = NC(=O)c1ccc(-c2ccc(C[C@H](N)C(=O)O)cc2)cc1; Ala(1-bicyclo(1.1.1)pentyl) = N[C@@H](CC12CC(C1)C2)C(=O)O; dPro(3S-(4-F-Bn)) = O=C(O)[C@@H]1NCC[C@@H]1Cc1ccc(F)cc1; Ala(pyrimidin-5-yl) = N[C@@H](Cc1cncnc1)C(=O)O; Phe(4-CONH2) = NC(=O)c1ccc(C[C@H](N)C(=O)O)cc1; Phe(4-COOH) = N[C@@H](Cc1ccc(C(=O)O)cc1)C(=O)O; Pro(cis-4-F) = O=C(O)[C@@H]1C[C@H](F)CN1; Ala(4-THP) = N[C@@H](CC1CCOCC1)C(=O)O; d(αMeD) = C[C@@](N)(CC(=O)O)C(=O)O; 4Pal = N[C@@H](Cc1ccncc1)C(=O)O; d(αMeS) = C[C@@](N)(CO)C(=O)O; Dab = NCC[C@H](N)C(=O)O; Aib = CC(C)(N)C(=O)O

B1: SEQ ID NO 378 (peptide)
peptide: cyclo([TyrEtNAc][4Pal][Phe(4-CONH2)]G[Pro(cis-4-F)][Trp(βS-Me,4-F)][Aib]SW[d(αMeS)][Ala(4-THP)]Q[Dab]G[dPro(4R-(4-pyridylmethyl))])
SMILES: CC(=O)NCCOc1ccc(C[C@@H]2NC(=O)[C@H]3C[C@@H](Cc4ccncc4)CN3C(=O)CNC(=O)[C@H](CCN)NC(=O)[C@H](CCC(N)=O)NC(=O)[C@H](CC3CCOCC3)NC(=O)[C@@](C)(CO)NC(=O)[C@H](Cc3c[nH]c4ccccc34)NC(=O)[C@H](CO)NC(=O)C(C)(C)NC(=O)[C@H]([C@@H](C)c3c[nH]c4cccc(F)c34)NC(=O)[C@@H]3C[C@H](F)CN3C(=O)CNC(=O)[C@H](Cc3ccc(C(N)=O)cc3)NC(=O)[C@H](Cc3ccncc3)NC2=O)cc1
B2: SEQ ID NO 376 (peptide)
peptide: cyclo([TyrEtNAc][Ala(1-bicyclo(1.1.1)pentyl)][Phe(4-CONH2)]G[Pro(cis-4-F)][Trp(βS-Me,4-F)][Aib]SW[d(αMeD)][Ala(4-THP)]Q[Dab]G[dPro(4R-(4-pyridylmethyl))])
SMILES: CC(=O)NCCOc1ccc(C[C@@H]2NC(=O)[C@H]3C[C@@H](Cc4ccncc4)CN3C(=O)CNC(=O)[C@H](CCN)NC(=O)[C@H](CCC(N)=O)NC(=O)[C@H](CC3CCOCC3)NC(=O)[C@@](C)(CC(=O)O)NC(=O)[C@H](Cc3c[nH]c4ccccc34)NC(=O)[C@H](CO)NC(=O)C(C)(C)NC(=O)[C@H]([C@@H](C)c3c[nH]c4cccc(F)c34)NC(=O)[C@@H]3C[C@H](F)CN3C(=O)CNC(=O)[C@H](Cc3ccc(C(N)=O)cc3)NC(=O)[C@H](CC34CC(C3)C4)NC2=O)cc1
B3: SEQ ID NO 379 (peptide)
peptide: cyclo([Bip(4'-CONH2)][4Pal][Phe(4-COOH)]G[Pro(cis-4-F)][Trp(βS-Me,4-F)][Aib]SW[d(αMeD)][Ala(pyrimidin-5-yl)]Q[Dab]G[dPro(3S-(4-F-Bn))])
SMILES: C[C@@H](c1c[nH]c2cccc(F)c12)[C@@H]1NC(=O)[C@@H]2C[C@H](F)CN2C(=O)CNC(=O)[C@H](Cc2ccc(C(=O)O)cc2)NC(=O)[C@H](Cc2ccncc2)NC(=O)[C@H](Cc2ccc(-c3ccc(C(N)=O)cc3)cc2)NC(=O)[C@H]2[C@@H](Cc3ccc(F)cc3)CCN2C(=O)CNC(=O)[C@H](CCN)NC(=O)[C@H](CCC(N)=O)NC(=O)[C@H](Cc2cncnc2)NC(=O)[C@@](C)(CC(=O)O)NC(=O)[C@H](Cc2c[nH]c3ccccc23)NC(=O)[C@H](CO)NC(=O)C(C)(C)NC1=O
B4: SEQ ID NO 377 (peptide)
peptide: cyclo([TyrEtNAc][4Pal][Phe(4-CONH2)]G[Pro(cis-4-F)][Trp(βS-Me,4-F)][Aib]SW[d(αMeD)][Ala(4-THP)]Q[Dab]G[dPro(4R-(4-pyridylmethyl))])
SMILES: CC(=O)NCCOc1ccc(C[C@@H]2NC(=O)[C@H]3C[C@@H](Cc4ccncc4)CN3C(=O)CNC(=O)[C@H](CCN)NC(=O)[C@H](CCC(N)=O)NC(=O)[C@H](CC3CCOCC3)NC(=O)[C@@](C)(CC(=O)O)NC(=O)[C@H](Cc3c[nH]c4ccccc34)NC(=O)[C@H](CO)NC(=O)C(C)(C)NC(=O)[C@H]([C@@H](C)c3c[nH]c4cccc(F)c34)NC(=O)[C@@H]3C[C@H](F)CN3C(=O)CNC(=O)[C@H](Cc3ccc(C(N)=O)cc3)NC(=O)[C@H](Cc3ccncc3)NC2=O)cc1
B5: SEQ ID NO 374 (peptide)
peptide: cyclo([TyrEtNAc][Ala(1-bicyclo(1.1.1)pentyl)][Phe(4-COOH)]G[Pro(cis-4-F)][Trp(βS-Me,4-F)][Aib]SW[d(αMeD)][Ala(4-THP)]Q[Dab]G[dPro(4R-(4-pyridylmethyl))])
SMILES: CC(=O)NCCOc1ccc(C[C@@H]2NC(=O)[C@H]3C[C@@H](Cc4ccncc4)CN3C(=O)CNC(=O)[C@H](CCN)NC(=O)[C@H](CCC(N)=O)NC(=O)[C@H](CC3CCOCC3)NC(=O)[C@@](C)(CC(=O)O)NC(=O)[C@H](Cc3c[nH]c4ccccc34)NC(=O)[C@H](CO)NC(=O)C(C)(C)NC(=O)[C@H]([C@@H](C)c3c[nH]c4cccc(F)c34)NC(=O)[C@@H]3C[C@H](F)CN3C(=O)CNC(=O)[C@H](Cc3ccc(C(=O)O)cc3)NC(=O)[C@H](CC34CC(C3)C4)NC2=O)cc1
B6: SEQ ID NO 373 (peptide)
peptide: cyclo([TyrEtNAc][Ala(1-bicyclo(1.1.1)pentyl)][Phe(4-CONH2)]G[Pro(cis-4-F)][Trp(βS-Me,4-F)][Aib]SW[d(αMeD)][Ala(4-THP)]Q[Dab]G[dPro(3S-(4-F-Bn))])
SMILES: CC(=O)NCCOc1ccc(C[C@@H]2NC(=O)[C@H]3[C@@H](Cc4ccc(F)cc4)CCN3C(=O)CNC(=O)[C@H](CCN)NC(=O)[C@H](CCC(N)=O)NC(=O)[C@H](CC3CCOCC3)NC(=O)[C@@](C)(CC(=O)O)NC(=O)[C@H](Cc3c[nH]c4ccccc34)NC(=O)[C@H](CO)NC(=O)C(C)(C)NC(=O)[C@H]([C@@H](C)c3c[nH]c4cccc(F)c34)NC(=O)[C@@H]3C[C@H](F)CN3C(=O)CNC(=O)[C@H](Cc3ccc(C(N)=O)cc3)NC(=O)[C@H](CC34CC(C3)C4)NC2=O)cc1
B7: SEQ ID NO 375 (peptide)
peptide: cyclo([TyrEtNAc][Ala(1-bicyclo(1.1.1)pentyl)][Phe(4-COOH)]G[Pro(cis-4-F)][Trp(βS-Me,4-F)][Aib]SW[d(αMeS)][Ala(4-THP)]Q[Dab]G[dPro(4R-(4-pyridylmethyl))])
SMILES: CC(=O)NCCOc1ccc(C[C@@H]2NC(=O)[C@H]3C[C@@H](Cc4ccncc4)CN3C(=O)CNC(=O)[C@H](CCN)NC(=O)[C@H](CCC(N)=O)NC(=O)[C@H](CC3CCOCC3)NC(=O)[C@@](C)(CO)NC(=O)[C@H](Cc3c[nH]c4ccccc34)NC(=O)[C@H](CO)NC(=O)C(C)(C)NC(=O)[C@H]([C@@H](C)c3c[nH]c4cccc(F)c34)NC(=O)[C@@H]3C[C@H](F)CN3C(=O)CNC(=O)[C@H](Cc3ccc(C(=O)O)cc3)NC(=O)[C@H](CC34CC(C3)C4)NC2=O)cc1
B8: SEQ ID NO 372 (peptide)
peptide: cyclo([TyrEtNAc][4Pal][Phe(4-COOH)]G[Pro(cis-4-F)][Trp(βS-Me,4-F)][Aib]SW[d(αMeD)][Ala(4-THP)]Q[Dab]G[dPro(3S-(4-F-Bn))])
SMILES: CC(=O)NCCOc1ccc(C[C@@H]2NC(=O)[C@H]3[C@@H](Cc4ccc(F)cc4)CCN3C(=O)CNC(=O)[C@H](CCN)NC(=O)[C@H](CCC(N)=O)NC(=O)[C@H](CC3CCOCC3)NC(=O)[C@@](C)(CC(=O)O)NC(=O)[C@H](Cc3c[nH]c4ccccc34)NC(=O)[C@H](CO)NC(=O)C(C)(C)NC(=O)[C@H]([C@@H](C)c3c[nH]c4cccc(F)c34)NC(=O)[C@@H]3C[C@H](F)CN3C(=O)CNC(=O)[C@H](Cc3ccc(C(=O)O)cc3)NC(=O)[C@H](Cc3ccncc3)NC2=O)cc1

The assay has as its target Recombinant human IL-1β (BioLegend 579404) (human, UniProt P01584 117-269). Kind of assay: cell-based or functional assay.
For the molecule B1, the “MRC5 IC50” value turned out to be 0.043 nM. The same measure for B2: 0.048 nM; for B3: 0.016 nM; for B4: 0.04 nM. Consider B5, for which the “MRC5 IC50” value turned out to be 0.017 nM. Then B6, with 0.012 nM; and B7, with 0.025 nM; and B8, with 0.009 nM.
